For 1 sequence, EC50 and Kd results are on record in patent publication US20190135868.

In one series the test system is T1, RTD913 SMCC (synthetic).
T1 sequence 1: KRAHHNALERXRRDXIKDS
T1 sequence 2: KRRTHNXLERXRRNELKRS
The series is described as follows: EMSA. The conditions noted are these: stable complex formation, somewhat unstable binding; text p911 gives ~50-100 nM.

For series [1], the system named is T2, RTD84 (stapled sDBD) (synthetic).
T2 sequence 1: KRXHHNXLERKRRDHIKDS
T2 sequence 2: KRRTHNXLERXRRNELKRS
The series is described as follows: EMSA. Conditions: text p911 gives EC50 ~50-100 nM.

“CACGTG (double strand) [E-box probe (E1)]” returned an EC50 in the series on RTD913 SMCC (synthetic) of 20 nM. In series [1], the Kd turned out to be 50 nM.
